Laboratory results reported in PMC9418005 (Nature Microbiology, 2022).

B1: P2G3 LS human IgG1 monoclonal antibody (antibody, V domains shown)
VH: EVQLVESGGGLVQPGRSLRLSCAASGFRFDDYALHWVRQAPEKGLEWVSGISWNSNNIGYAESVKGRFTISRDTAKKSLYLQMNDLRAEDTALYYCVKDRHYDSSGYFVNGFDIWGQGTLVTVSA
VL: DIQLTQSPSFLSASVGDRVTVTCRASQGISSYVAWYQQKAGKAPTLLIYTASTLQSGVPSRFSGSGSGTEFTLTISSLQPEDFATYYCQQLHSYPVTFGQGTRLDIE
B2: P5C3 LS monoclonal antibody (antibody, V domains shown)
VH: QMQLVQSGPEVKKPGTSVKVSCKASGFTFTSSAVQWVRQARGQRLEWIGWIVVGSGNTDYAQQFQERVTITRDMSTSTAYMELSSLGSEDTAVYYCAAPNCSGGSCYDGFDLWGQGTMVTVSS
VL: EIVLTQSPGTLSLSPGERATLSCRGSQSVRSSYLGWYQQKPGQAPRLLIYGASSRATGIPDRFSGSGSGTDFTLTISRLEPEDFAVYYCQQYGSSPWTFGQGTKVEIK

Molecular target: original 2019-nCoV RBD protein (SARS-CoV-2, UniProt P0DTC2)
Assay: Luminex bead-based competitive binding assay
Conditions: both partners purified

Row | Binder | binding result
1 | B1 | binds
2 | B2 | binds
